These results are taken from patent publication US20230192843A1 (TENEOBIO, published 2023).

Changes are numbered by the printed parent chain.

For test [1], the target named is T1, human MSLN expressed on CHO cells (human, UniProt Q13421 296-598).
T1 construct: whole, on cells; also called CHO-huMSLN
Description: flow cytometry, antibody supernatant on CHO cells expressing human MSLN. The protocol:
Pelleted CHO cells were resuspended in flow buffer (1X phosphate buffered saline (PBS), 1% bovine serum albumin (BSA), and 0.1% NaN₃) at 1.25 × 10⁶ cells/mL. Antibody containing supernatants were diluted 1:5 in flow buffer, and 40 µL cells plus 10 µL diluted antibody supernatant were incubated for 30 minutes at 4° C. Cells were washed with flow buffer and resuspended in 50 µL phycoerythrin (PE)-conjugated secondary antibody (Southern Biotech #2042-09) diluted in flow buffer to 1.25 µg/mL and incubated for 20 minutes at 4° C. After two wash steps, cells were resuspended in flow buffer and analyzed using a Guava easyCyte 8HT system. Table E1 summarizes the target binding activity of the anti-MSLN single domain antibodies as fold over background MFI signal.
(In flow cytometry, cells or beads pass a laser one at a time.)

In test [2] the target is T1, human MSLN expressed on CHO cells. Description: flow cytometry dose curve on CHO cells expressing human MSLN. The protocol:
Cell-binding dose curves for example anti-MSLN single domain antibodies described herein were performed using CHO cells expressing human MSLN (FIG. 1A), HeLa cells (FIG. 1B), and CHO-OFFtgt cells (FIG. 1C). The single domain antibodies were tested at a starting concentration of 150 nM, followed by 3-fold serial dilutions for an 8-point dose curve. All washes and dilutions of cells, antibodies, and reagents were performed using flow buffer (1X phosphate buffered saline (PBS), 1% bovine serum albumin (BSA), and 0.1% NaN₃). Cells were pelleted and resuspended at 1 × 10⁶ cells/mL in flow buffer. Then, 50 µL cells were combined with 50 µL of test antibody and incubated 30 minutes at 4° C., followed by two wash steps with flow buffer. Cells were then resuspended in 50 µL PE-conjugated secondary diluted to 1.25 µg/mL (Southern Biotech #2042-09) and incubated for 20 minutes at 4° C. After two wash steps, cells were resuspended in flow buffer and analyzed using a BD Celesta system. PE mean fluorescence intensity was plotted as a fold over background (cells incubated with secondary detection antibody only).
To determine cell binding EC50 values for example anti-MSLN single domain antibodies of the present disclosure, cell binding dose curves were performed on HeLa cells and CHO cells expressing human MSLN. […]

Test [3] has as its target MSLN on HeLa cells (human) (UniProt Q13421). The test can be described thus: flow cytometry dose curve on HeLa cells.
Test [4] addresses T2, recombinant human MSLN (R&D Systems, #3265-MS) (human, UniProt Q13421 296-580, limits assumed).
T2 construct: Bought protein; also called antigen
The test can be described thus: BLI (Octet HTX), antibody on AHC sensor, antigen in solution, 1:1 model. The protocol:
Table E3 summarizes affinity and epitope bin information for example anti-MSLN single domain antibodies of the present disclosure. The affinity of each single domain antibody to recombinant human MSLN (R&D Systems, #3265-MS) was measured by Bio-layer interferometry (BLI) using an Octet HTX. AHC (Anti-hIgG Fc Capture) sensors were used to immobilize test antibody at 5 µg/mL. After baseline readings, sensors were dipped into antigen solutions (starting at 500 nM followed by a 7-point, 2-fold dilution series). Association and dissociation were measured for 180 and 240 seconds respectively. Data were analyzed with Octet Data Analysis v11.0 HT (ForteBio) using a standard 1:1 binding model. Epitope bins for the single domain antibodies were determined by an in-tandem competition BLI binding experiment using an Octet HTX. The antigen (5 µg/mL) was loaded on the sensor Ni-NTA sensor followed by a baseline in kinetic buffer. The antigen coated sensor was then dipped into a saturating concentration Antibody 1. A second baseline was now set for 300 sec. Then the antigen-antibody 1 complex was dipped into Antibody 2 solution for 180 sec and then allowed to dissociate.

T1 sequence (Q13421 other isoform, or with tags, fused parts or gaps limits assumed): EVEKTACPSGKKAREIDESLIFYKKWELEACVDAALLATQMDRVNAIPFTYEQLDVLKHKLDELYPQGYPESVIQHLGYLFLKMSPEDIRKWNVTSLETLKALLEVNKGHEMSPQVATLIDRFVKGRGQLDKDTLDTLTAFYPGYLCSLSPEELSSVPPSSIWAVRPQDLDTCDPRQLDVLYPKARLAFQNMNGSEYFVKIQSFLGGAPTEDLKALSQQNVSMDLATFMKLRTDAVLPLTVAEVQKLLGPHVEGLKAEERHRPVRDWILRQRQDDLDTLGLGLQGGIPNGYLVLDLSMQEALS
T2 sequence (Q13421 other isoform, or with tags, fused parts or gaps limits assumed): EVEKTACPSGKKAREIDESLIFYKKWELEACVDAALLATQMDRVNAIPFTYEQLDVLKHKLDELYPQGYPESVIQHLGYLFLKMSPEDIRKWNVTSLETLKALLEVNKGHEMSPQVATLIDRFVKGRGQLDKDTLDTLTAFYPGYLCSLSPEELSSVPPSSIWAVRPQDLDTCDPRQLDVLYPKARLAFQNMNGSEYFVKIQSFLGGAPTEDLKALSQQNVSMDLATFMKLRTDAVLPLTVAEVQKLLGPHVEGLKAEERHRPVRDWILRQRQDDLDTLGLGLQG

B1: anti-MSLN single domain antibody clone 394556 (VHH)
VHH: QLQLQESGPGLVKPSETLSLTCTVSGGSISNSYYWGWIRQPPGKGLEWIGSIYHSGNTYYNPSLKSRVTISVDTSKNQFSLKLSSVTAADTAVYYCVTQDGVGATTTEEYWGQGTLVTVSS
notes: Human VH single domain antibody; It was captured on anti-hIgG Fc (AHC) sensors, so it apparently carried a human Fc
Turning to B1, the “fold over background MFI signal” value in test [1] was 540 fold over background. Moreover, the EC50 in test [2] was found to be 2.9 nM; in test [3], 2.5 nM. Moreover, the Kd in test [4] was determined as 90.4 nM.

B2: anti-MSLN single domain antibody clone 392026 (VHH)
VHH: B1 VHH with V97T, T98S
In the case of B2, the EC50 in test [3] was found to be 9.8 nM. In other words, the single-digit nanomolar range.

B3: anti-MSLN single domain antibody clone 394610 (VHH)
VHH: B1 VHH with N31S, V97T, T98S
notes: Human VH single domain antibody; Tested as antibody-containing supernatant
B3: the “fold over background MFI signal” value in test [1] is 78 fold over background.

B4: anti-MSLN single domain antibody clone 394541 (VHH)
VHH: B1 VHH with I70M, V97T, T98S
notes: Human VH single domain antibody; It was captured on anti-hIgG Fc sensors
Regarding B4, the “fold over background MFI signal” value in test [1] was found to be 422 fold over background. Further, the Kd in test [4] came out at 3800 nM.

B5: anti-MSLN single domain antibody clone 394607 (VHH)
VHH: B1 VHH with H54Y, N57S, K82S, S84N, V97A
notes: as for B3
As to B5, the “fold over background MFI signal” value in test [1] worked out at 141 fold over background.

B6: anti-MSLN single domain antibody clone 394606 (VHH)
VHH: B1 VHH with N31S, V97A, D100N
notes: as for B3
In the case of B6, the “fold over background MFI signal” value in test [1] came to 87.3 fold over background.

B7: anti-MSLN single domain antibody clone 394573 (VHH)
VHH: B1 VHH with V97A, D100N
notes: as for B3
On to B7, for which the “fold over background MFI signal” value in test [1] is 194 fold over background.

B8: anti-MSLN single domain antibody clone 394567 (VHH)
VHH: B1 VHH with H54Y, N57S, T58I, Y59H, V97T, T98S
notes: as for B3
Take B8: the “fold over background MFI signal” value in test [1] worked out at 16.9 fold over background.

B9: anti-MSLN single domain antibody clone 394582 (VHH)
VHH: B1 VHH with V97T, D100N
notes: as for B4
With B9, in test [1], the “fold over background MFI signal” value came to 367 fold over background. Besides, the EC50 in test [2] came out at 2.2 nM; in test [3], 1.3 nM. Besides, the Kd in test [4] turned out to be 220 nM.

In general, EC50 refers to the midpoint of the concentration-response curve. Low readings indicate a more potent agent, high ones a less potent agent. As usually defined, the Kd is the constant that tells how readily two partners part at equilibrium.
